{
  "source": "patent US20240252613A1",
  "about": "(ACHELOIS BIOPHARMA, published 2024)",
  "key": {"[1]": {"biological_target": "T1, OX40L on transfected S293 cells (Mus musculus (Mouse), UniProt P43488 1-198)", "T1 construct": "also called OX40 ligand", "T1 sequence": "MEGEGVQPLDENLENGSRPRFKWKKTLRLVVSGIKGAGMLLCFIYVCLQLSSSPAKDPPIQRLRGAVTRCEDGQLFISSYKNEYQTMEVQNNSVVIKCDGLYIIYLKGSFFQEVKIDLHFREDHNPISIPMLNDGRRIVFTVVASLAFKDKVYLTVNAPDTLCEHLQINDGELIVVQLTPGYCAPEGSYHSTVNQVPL", "test": "FACS, unlabeled MVP on transfected cells, detected with antibody"}, "[2]": {"biological_target": "T1, OX40L on transfected S293 cells", "test": "FACS, dye-labeled MVP on transfected S293 cells"}, "[3]": {"biological_target": "T2, GITR Ligand on transfected S293 cells (Mus musculus (Mouse), UniProt Q7TS55 1-173)", "T2 sequence": "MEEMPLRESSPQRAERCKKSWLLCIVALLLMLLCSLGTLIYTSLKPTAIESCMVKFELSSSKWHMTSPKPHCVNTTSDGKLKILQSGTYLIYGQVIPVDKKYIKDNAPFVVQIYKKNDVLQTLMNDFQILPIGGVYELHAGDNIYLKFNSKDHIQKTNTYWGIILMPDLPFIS", "test": "FACS, unlabeled MVP on transfected cells, detected with antibody"}, "[4]": {"biological_target": "T2, GITR Ligand on transfected S293 cells", "test": "FACS, dye-labeled MVP on transfected S293 cells"}, "[5]": {"biological_target": "T3, 4-1BBL on transfected S293 cells (Mus musculus (Mouse), UniProt P41274 1-309)", "T3 construct": "also called 4-1BB ligand", "T3 sequence": "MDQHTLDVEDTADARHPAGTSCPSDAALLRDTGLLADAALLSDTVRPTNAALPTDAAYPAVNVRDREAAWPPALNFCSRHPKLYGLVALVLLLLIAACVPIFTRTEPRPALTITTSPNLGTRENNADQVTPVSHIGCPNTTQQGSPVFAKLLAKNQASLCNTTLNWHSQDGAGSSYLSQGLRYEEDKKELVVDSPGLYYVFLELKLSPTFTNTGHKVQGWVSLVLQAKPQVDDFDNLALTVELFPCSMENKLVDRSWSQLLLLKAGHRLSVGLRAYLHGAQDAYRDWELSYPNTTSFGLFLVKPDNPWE", "test": "FACS, dye-labeled MVP on transfected S293 cells"}, "[6]": {"biological_target": "T4, ICOS ligand on transfected S293 cells (Mus musculus (Mouse), UniProt Q9JHJ8 47-322)", "T4 sequence": "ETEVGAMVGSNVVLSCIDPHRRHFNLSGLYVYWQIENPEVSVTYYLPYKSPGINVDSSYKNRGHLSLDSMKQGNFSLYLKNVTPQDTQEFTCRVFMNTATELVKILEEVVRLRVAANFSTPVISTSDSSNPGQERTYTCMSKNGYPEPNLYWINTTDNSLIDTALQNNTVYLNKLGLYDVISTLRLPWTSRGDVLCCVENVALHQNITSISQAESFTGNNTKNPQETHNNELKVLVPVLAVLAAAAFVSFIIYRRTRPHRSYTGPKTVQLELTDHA", "test": "FACS, dye-labeled MVP on transfected S293 cells"}, "[7]": {"biological_target": "T5, human TIM-3 on transfected S293 cells (human, UniProt Q8TDQ0 22-301)", "T5 construct": "also called HAVCR2", "T5 sequence": "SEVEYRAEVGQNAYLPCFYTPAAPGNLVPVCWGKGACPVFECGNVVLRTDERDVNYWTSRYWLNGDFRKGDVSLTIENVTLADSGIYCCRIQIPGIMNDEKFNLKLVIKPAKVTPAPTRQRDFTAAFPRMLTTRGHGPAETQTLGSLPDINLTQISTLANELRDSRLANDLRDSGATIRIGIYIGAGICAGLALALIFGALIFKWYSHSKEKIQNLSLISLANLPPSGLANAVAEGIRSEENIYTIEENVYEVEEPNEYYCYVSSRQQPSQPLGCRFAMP", "test": "FACS, unlabeled MVP on transfected cells, detected with antibody"}, "[8]": {"biological_target": "T5, human TIM-3 on transfected S293 cells", "test": "FACS, dye-labeled MVP on transfected S293 cells"}, "[9]": {"biological_target": "T6, CD2 on transfected S293 cells (Mus musculus (Mouse), UniProt P08920 23-344)", "T6 sequence": "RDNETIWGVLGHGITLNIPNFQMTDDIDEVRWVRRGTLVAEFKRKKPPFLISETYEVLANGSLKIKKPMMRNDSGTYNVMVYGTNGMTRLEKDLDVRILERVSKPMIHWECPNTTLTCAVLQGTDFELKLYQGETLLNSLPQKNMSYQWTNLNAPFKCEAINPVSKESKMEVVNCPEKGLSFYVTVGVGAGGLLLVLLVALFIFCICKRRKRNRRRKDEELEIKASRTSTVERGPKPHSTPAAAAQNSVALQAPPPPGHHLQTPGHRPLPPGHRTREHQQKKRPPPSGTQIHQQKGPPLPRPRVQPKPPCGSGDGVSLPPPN", "test": "FACS, unlabeled MVP on transfected cells, detected with antibody"}},
  "data": [
    {"binder": "OX40-MVP (other, also called OX40-MVPs; Murine OX40-MVP) VTARRLNCVKHTYPSGHKCCRECQPGHGMVSRCDHTRDTLCHPCETGFYNEAVNYDTCKQCTQCNHRSGSELKQNCTPTQDTVCRCRPGTQPRQDSGYKLGVDCVPCPPGHFSPGNNQACKPWTNCTLSGKQTRHPASDSLDAVCEDRSLLATLLWETQRPTFRPTTVQSTTVWPRTSELPSPPTLVTPEGPADIIQADGWMCHASKWVTTCDFRWYGPKYITHSIRSFTPSVEQCKESIEQTKQGTWLNPGFPPQSCGYATVTDAEAVIVQVTPHHVLVDEYTGEWVDSQFINGKCSNYICPTVHNSTTWHSDYKVKGLCDSNLGMLDSDLHLSSKAQVFEHPHIQDAASQLPDDESLFFGDTGLSKNPIELVEGWFSSWKSSIASFFFIIGLIIGLFLVLRVGIHLCIKLKHTKKRQIYTDIEMNRLGK", "values": [
      {"measurement": "staining shift of target+ over target- cells", "setting": "[1]", "value": 1, "unit": "log"},
      {"measurement": "fluorescence shift relative to control MVPs", "setting": "[2]", "value": "≥ 2", "unit": "fold"}
    ]},
    {"binder": "GITR-MVP (other, also called GITR-MVPs; Murine GITR-MVP) QPSVVEEPGCGPGKVQNGSGNNTRCCSLYAPGKEDCPKERCICVTPEYHCGDPQCKICKHYPCQPGQRVESQGDIVFGFRCVACAMGTFSAGRDGHCRLWTNCSQFGFLTMFPGNKTHNAVCIPEPLPTEQYGHIIQADGWMCHASKWVTTCDFRWYGPKYITHSIRSFTPSVEQCKESIEQTKQGTWLNPGFPPQSCGYATVTDAEAVIVQVTPHHVLVDEYTGEWVDSQFINGKCSNYICPTVHNSTTWHSDYKVKGLCDSNLGMLDSDLHLSSKAQVFEHPHIQDAASQLPDDESLFFGDTGLSKNPIELVEGWFSSWKSSIASFFFIIGLIIGLFLVLRVGIHLCIKLKHTKKRQIYTDIEMNRLGK", "values": [
      {"measurement": "staining shift of target+ over target- cells", "setting": "[3]", "value": 1, "unit": "log"},
      {"measurement": "fluorescence shift relative to control MVPs", "setting": "[4]", "value": "≥ 2", "unit": "log"}
    ]},
    {"binder": "4-1BB-MVP (other, also called 4-1BB-MVPs; Murine 4-1BB-MVP) VQNSCDNCQPGTFCRKYNPVCKSCPPSTFSSIGGQPNCNICRVCAGYFRFKKFCSSTHNAECECIEGFHCLGPQCTRCEKDCRPGQELTKQGCKTCSLGTFNDQNGTGVCRPWTNCSLDGRSVLKTGTTEKDVVCGPPVVSFSPSTTISVTPEGGPGGHSLQVLTDIIQADGWMCHASKWVTTCDFRWYGPKYITHSIRSFTPSVEQCKESIEQTKQGTWLNPGFPPQSCGYATVTDAEAVIVQVTPHHVLVDEYTGEWVDSQFINGKCSNYICPTVHNSTTWHSDYKVKGLCDSNLGMLDSDLHLSSKAQVFEHPHIQDAASQLPDDESLFFGDTGLSKNPIELVEGWFSSWKSSIASFFFIIGLIIGLFLVLRVGIHLCIKLKHTKKRQIYTDIEMNRLGK", "values": [
      {"measurement": "fluorescence shift relative to control MVPs", "setting": "[5]", "value": "≥ 2", "unit": "fold"}
    ]},
    {"binder": "ICOS-MVP (other, also called ICOS-MVPs; Murine ICOS-MVP) EINGSADHRMFSFHNGGVQISCKYPETVQQLKMRLFREREVLCELTKTKGSGNAVSIKNPMLCLYHLSNNSVSFFLNNPDSSQGSYYFCSLSIFDPPPFQERNLSGGYLHIYESQLCCQLKLDIIQADGWMCHASKWVTTCDFRWYGPKYITHSIRSFTPSVEQCKESIEQTKQGTWLNPGFPPQSCGYATVTDAEAVIVQVTPHHVLVDEYTGEWVDSQFINGKCSNYICPTVHNSTTWHSDYKVKGLCDSNLGMLDSDLHLSSKAQVFEHPHIQDAASQLPDDESLFFGDTGLSKNPIELVEGWFSSWKSSIASFFFIIGLIIGLFLVLRVGIHLCIKLKHTKKRQIYTDIEMNRLGK", "values": [
      {"measurement": "fluorescence shift relative to control MVPs", "setting": "[6]", "value": "~2", "unit": "fold"}
    ]},
    {"binder": "human Ceacam1-MVP (other, also called Ceacam1-MVPs) QLTTESMPFNVAEGKEVLLLVHNLPQQLFGYSWYKGERVDGNRQIVGYAIGTQQATPGPANSGRETIYPNASLLIQNVTQNDTGFYTLQVIKSDLVNEEATGQFHVYPELPKPSISSNNSNPVEDKDAVAFTCEPETQDTTYLWWINNQSLPVSPRLQLSNGNRTLTLLSVTRNDTGPYECEIQNPVSANRSDPVTLNVTYGPDTPTISPSDTYYRPGANLSLSCYAASNPPAQYSWLINGTFQQSTQELFIPNITVNNSGSYTCHANNSVTGCNRTTVKTIIVTELSPVVAKPQIKASKTTVTGDKDSVNLTCSTNDTGISIRWFFKNQSLPSSERMKLSQGNTTLSINPVKREDAGTYWCEVFNPISKNQSDPIMLNVNYNALPQENGLSPGIIQADGWMCHASKWVTTCDFRWYGPKYITHSIRSFTPSVEQCKESIEQTKQGTWLNPGFPPQSCGYATVTDAEAVIVQVTPHHVLVDEYTGEWVDSQFINGKCSNYICPTVHNSTTWHSDYKVKGLCDSNLGMLDSDLHLSSKAQVFEHPHIQDAASQLPDDESLFFGDTGLSKNPIELVEGWFSSWKSSIASFFFIIGLIIGLFLVLRVGIHLCIKLKHTKKRQIYTDIEMNRLGK", "values": [
      {"measurement": "staining shift of target+ over target- cells", "setting": "[7]", "value": "~2", "unit": "fold"},
      {"measurement": "fluorescence shift relative to control MVPs", "setting": "[8]", "value": "~2", "unit": "fold"}
    ]},
    {"binder": "CD48-MVP (other, also called CD48-MVPs; Murine CD48-MVP) FQGHSIPDINATTGSNVTLKIHKDPLGPYKRITWLHTKNQKILEYNYNSTKTIFESEFKGRVYLEENNGALHISNVRKEDKGTYYMRVLRETENELKITLEVFDPVPKPSIEINKTEASTDSCHLRLSCEVKDQHVDYTWYESSGPFPKKSPGYVLDLIVTPQNKSTFYTCQVSNPVSSKNDTVYFTLPCDLARSSGVCWTATWLVVTTLIIHRILLTIIQADGWMCHASKWVTTCDFRWYGPKYITHSIRSFTPSVEQCKESIEQTKQGTWLNPGFPPQSCGYATVTDAEAVIVQVTPHHVLVDEYTGEWVDSQFINGKCSNYICPTVHNSTTWHSDYKVKGLCDSNLGMLDSDLHLSSKAQVFEHPHIQDAASQLPDDESLFFGDTGLSKNPIELVEGWFSSWKSSIASFFFIIGLIIGLFLVLRVGIHLCIKLKHTKKRQIYTDIEMNRLGK", "values": [
      {"measurement": "staining shift of target+ over target- cells", "setting": "[9]", "value": "> 1", "unit": "log"}
    ]}
  ]
}
